Patent US20100150906A1 (AC IMMUNE S A, published 2010)
“And” between values parts separate entries of the source, which are not always exact repeats. Equal values may be shown once. No end group written: not given here.

Assays:
[1] = target: T1, peptide p13-21 G21 of the third library (A21 to glycine) (also: biotinylated, position not given here); test: ELISA on third peptide library, antibody at 10 µg/ml
T1 peptide: HHQKLVFFG
Method: (§1) Epitope mapping of the monoclonal antibody mACI-01-Ab7 C2 was performed by ELISA using three different peptide libraries. One library comprises a total of 33 biotinylated peptides covering the complete amino acid (aa) sequence of Aβ1-42 (produced by Mimotopes and purchased from ANAWA Trading SA), the second library contains biotinylated peptides using peptide 12 (aa12-20 of Aβ) from the first peptide library and substituting each amino acid in the sequence by an alanine (see […] below), and the third library contains biotinylated peptides 13, 14, or 15 (aa 13-21, 14-22 or 15-23 of Aβ) and substituting in each case the last amino acids to an alanine or to a glycine for aa 21 which is already an alanine (see table 5 below). A biotinylated complete Aβ1-42 peptide was used as positive control (Bachem). Epitope mapping was done according to the manufacturer's (Mimotopes) instructions. Briefly, Streptavidin coated plates (NUNC) were blocked with 0.1% BSA in PBS overnight at 4° C. After washing with PBS-0.05% Tween 20, plates were coated for 1 hour at RT with the different peptides from the library, diluted in 0.1% BSA, 0.1% Sodium Azide in PBS to a final concentration of 10 μM. After washing, plates were incubated for 1 hour at RT with the mACI-01-Ab7 C2 antibody or an isotype control mouse IgG2b antibody, diluted to 10 μg/ml in 2% BSA, 0.1% Sodium Azide in PBS. Plates were washed again and incubated with alkaline phosphatase conjugated goat anti mouse IgG for 1 h at RT.

[2] = target: T2, peptide p14-22 A22 of the third library (E22 to alanine) (also: biotinylated, position not given here); test: as above
T2 peptide: HQKLVFFAA
Method: as §1

[3] = target: T3, peptide p15-23 A23 of the third library (D23 to alanine) (also: biotinylated, position not given here); test: as above
T3 peptide: QKLVFFAEA
Method: as §1

[4] = target: T4, amyloid beta 1-42 monomers (UniProt P05067 672-713); test: ELISA on coated amyloid (55 µg/ml); mC2 at 0.625 ug/ml
T4 construct: domain: amyloid beta 1-42; also called Aβ1-42 monomers; amyloid monomers
Method: (§2) In order to evaluate the specificity of mC2 to different stages of polymerized amyloid protein, monomeric, polymeric soluble and fibrillic amyloid, an ELISA coated with these different stages of polymeric beta-amyloid was performed (FIG. 9). Monomers were prepared according to a modified method published by (Klein, 2002), soluble polymeric amyloid beta according to (Barghorn et al., 2005), whereas fibers were performed by incubation of amyloid (Bachem, Switzerland) with a final concentration of 1 μg/μl in Tris/HCl pH 7.4 at 37° C. for 5 days followed by a centrifugation step (10,000 rpm for 5 minutes). Then amyloid polymers were coated on an ELISA plates with a final concentration of 55 μg/ml and binding affinity ELISA by using an anti-mouse IgG monoclonal antibody (Jackson) labelled with alkaline phosphate was performed.

[5] = target: T5, amyloid beta 1-42 fibers (UniProt P05067 672-713); test: as above
T5 construct: domain: amyloid beta 1-42; Many copies per fiber; also called Aβ1-42 fibers; fibrillar Aβ1-42
Method: as §2

[6] = target: T6, soluble polymeric amyloid beta (oligomers) (UniProt P05067 672-713); test: as above
T6 construct: domain: amyloid beta 1-42; also called amyloid oligomers; Abeta oligomer
Method: as §2

[7] = target: T5, amyloid beta 1-42 fibers; test: SPR (Biacore X), fibrillar Aβ1-42 on CM5 chip, 1:1 fit
Method: The interactions between AC immune's lead antibody mACI-01-Ab7 C2 (mC2) with amyloid peptide Aβ₁₋₄₂ was studies using surface plasmon resonance. The binding of the mouse antibody mACI-01-Ab7 C2 to either monomers or fibers of Aβ₁₋₄₂ were determined.
All SPR experiments were carried out on a Biacore X instrument (Biacore AB). Reagents for immobilization (EDC, NHS and ethanolamine), sensor chips CM5 and SA as well as running and sample buffer HBS-EP were purchased from Biacore AB. Sodium acetate (10 mM, pH 5.0) was used as coupling buffer to increase coupling yield. Fibrillar Aβ₁₋₄₂ (BAchem) was prepared by adding PBS buffer to Aβ₁₋₄₂ to a final concentration of 3 mg/ml and leaving the vials at 37° C. for 7 days. Fibrillar Aβ₁₋₄₂ was coupled to a CM5 sensor chip containing a surface-bound carboxymethyl dextran matrix. Biotinylated monomeric Aβ₁₋₄₂ (Bachem) was coupled to a Sensor chip SA consisting of carboxymethyl dextran matrix with covalently attached Streptavidin. Typically four or five concentrations of mAb were assayed by serial dilutions using running buffer. Injections were performed starting from the lowest concentration and were passed over both fc 1 and 2 at a flow rate of 30 μL'min for 3 min. Flow cell 2 was underivatised and responses were subtracted from fc 1 to correct for instrument noise and bulk refractive changes. After injection was finished, the surfaces were washed immediately with running buffer for 5 min. To remove remaining bound antibody from the Aβ₁₋₄₂ fibrils, surface regeneration was performed by injecting pulses of 10 mM NaOH. Kinetic analysis was performed using algorithms for numerical integration and global analysis using BIAevaluation 3.0. The curves obtained for injections of analyte at different concentrations were overlaid and the baselines adjusted to zero. For curve fitting, all data were fit simultaneously to a 1:1 homogeneous complex.

[8] = target: T7, peptide 14 of the first library (aa 14-22 of Aβ) (also: biotinylated, position not given here); test: ELISA on biotinylated peptides on streptavidin plates, antibody at 10 µg/ml
T7 construct: also called p14-22
T7 peptide: HQKLVFFAE
Method: as §1

[9] = target: T5, amyloid beta 1-42 fibers; test: SPR (BIACORE), Aβ1-42 fibers immobilized on CM5 chip, antibody 0.05-1.0 µM
Method: BIACORE® technology utilizes changes in the refractive index at the surface layer upon binding of the antibody to the antigen immobilized on the layer. Binding is detected by surface plasmon resonance (SPR) of laser light refracting from the surface. Analysis of the signal kinetics on rate and off rate allows the discrimination between non-specific and specific interaction. The concentration of antibody used was in the range of 0.05 μM to 1.0 μM.

T5 sequence (P05067 672-713 limits assumed): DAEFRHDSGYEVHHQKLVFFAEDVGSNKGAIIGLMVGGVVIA
T4 sequence (P05067 672-713 limits assumed): as above
T6 sequence (P05067 672-713 limits assumed): as above

B1: mouse monoclonal antibody ACI-01-Ab7C2 (antibody, V domains shown)
VH: EVQLVESGGGLVQPGGSLKLSCAASGFTFSSYGMSWVRQTPDKRLELVASINSNGGSTYYPDSVKGRFTISRDNAKNTLYLQMSSLKSEDTAMYYCASGDYWGQGSTLTVSS
VL: DVVMTQTPLSLPVSLGDQASISCRSSQSLVYSNGDTYLHWYLQKPGQSPKLLIYKVSNRFSGVPDRFSGSGSGTDFTLKISRVEAEDLGVYFCSQSTHVPWTFGGGTKLEIK
notes: also called mC2; mACI-01-Ab7 C2
Does B1 bind [1]?
Result: binds

Does B1 bind [2]?
Result: binds

Does B1 bind [3]?
Result: binds

What about the O.D [4] of the same binder?
Its O.D is 1.16 O.D.

What about the O.D [5] of the same binder?
The O.D was 1.62 O.D.

What about the O.D [6] of the same binder?
Its O.D is 2.81 O.D.

What about the Kd [7] of the same binder?
The Kd was 45.8 nM and 41 nM and 17.3 nM.

What about the koff [7] of the same binder?
Its koff is 0.00149 s⁻¹ and 0.00099 s⁻¹ and 0.000966 s⁻¹.

What about the kon [7] of the same binder?
The kon was 24000 M⁻¹ s⁻¹ and 56000 M⁻¹ s⁻¹ and 32600 M⁻¹ s⁻¹.

Does B1 bind [8]?
Result: binds

And the Kd [9]?
Its Kd is 41 nM.

What about the koff [9] of the same binder?
Its koff is 0.00099 s⁻¹.

And the kon [9]?
Its kon is 24000 M⁻¹ s⁻¹.
